Experimental data published in patent publication US20160039904A1 (UNITED STATES OF AMERICA AS REPRESENTED BY THE SECRETARY …, published 2016).

How the values were obtained:
[1] = molecular target: HIV-1 gp140Con-s (HIV-1)
[2] = molecular target: HIV-1 gp140MS (HIV-1)
[3] = molecular target: HIV-1 gp140CH12.0544.2 (HIV-1)

B1: mD1.22 (receptor)
chain: not shown
Kd [1]: 4.4 nM
Kd [2]: 0.19 nM
Kd [3]: 0.17 nM
